The target of the assay is T1, hiR2-FL-I566E-T7 (human iRhom2 full length I566E, 3 x T7 tag) (human, UniProt Q6PJF5 1-856).
T1 sequence: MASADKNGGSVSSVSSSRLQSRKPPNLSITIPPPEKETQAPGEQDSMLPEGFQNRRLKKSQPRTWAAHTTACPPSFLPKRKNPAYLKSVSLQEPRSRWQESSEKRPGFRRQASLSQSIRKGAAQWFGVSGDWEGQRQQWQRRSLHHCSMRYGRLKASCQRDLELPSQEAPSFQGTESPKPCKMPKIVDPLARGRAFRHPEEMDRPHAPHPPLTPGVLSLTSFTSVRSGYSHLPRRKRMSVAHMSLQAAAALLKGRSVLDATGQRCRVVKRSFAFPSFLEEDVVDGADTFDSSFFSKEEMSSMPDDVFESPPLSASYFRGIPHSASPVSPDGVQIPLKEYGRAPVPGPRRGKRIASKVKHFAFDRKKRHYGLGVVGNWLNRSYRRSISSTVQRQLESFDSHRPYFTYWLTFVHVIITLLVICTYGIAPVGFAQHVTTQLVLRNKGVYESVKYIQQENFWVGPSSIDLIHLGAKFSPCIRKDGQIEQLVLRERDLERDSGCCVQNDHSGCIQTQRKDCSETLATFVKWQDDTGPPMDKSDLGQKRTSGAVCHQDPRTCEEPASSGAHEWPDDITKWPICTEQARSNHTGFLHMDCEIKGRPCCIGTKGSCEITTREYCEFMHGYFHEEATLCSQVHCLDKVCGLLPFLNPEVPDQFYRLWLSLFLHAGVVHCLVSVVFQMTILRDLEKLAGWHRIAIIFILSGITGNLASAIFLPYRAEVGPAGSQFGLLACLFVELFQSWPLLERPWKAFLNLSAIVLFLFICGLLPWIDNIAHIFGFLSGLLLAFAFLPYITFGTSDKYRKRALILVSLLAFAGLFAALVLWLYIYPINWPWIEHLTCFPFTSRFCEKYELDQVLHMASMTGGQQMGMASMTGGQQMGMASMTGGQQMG
Nature of the assay: FACS on cells of the row I566E, vs human iR2 wild type = 100%. From the text:
In brief, immortalized MEF-DKO hiR2-FL-G563D-T7, MEF-DKO hiR2-FL-A564P-T7, MEF-DKO hiR2-FL-I566E-T7, MEF-DKO hiR2-FL-D569E-T7, MEF-DKO hiR2-FL-E579K-T7, MEF-DKO hiR2-FL-Q580N-T7, MEF-DKO hiR2-FL-A581S-T7, MEF-DKO hiR2-FL-R582A-T7, MEF-DKO hiR2-FL-S583G-T7, MEF-DKO hiR2-FL-G587N-T7, MEF-DKO hiR2-FL-F588H-T7, MEF-DKO hiR2-FL-L589P-T7, MEF-DKO hiR2-FL-E594V-T7, MEF-DKO hiR2-FL-K596T-T7, MEF-DKO hiR2-FL-S607R-T7, MEF-DKO hiR2-FL-T612S-T7, MEF-DKO hiR2-FL-E617D-T7, MEF-DKO hiR2-FL-H620R-T7, MEF-DKO hiR2-FL-L636M-T7, MEF-DKO hiR2-FL-K638D-T7, MEF-DKO hiR2-FL-I771F-T7, MEF-DKO hiR2-FL-I825V-T7, MEF-DKO hiR2-FL-I828V-T7, MEF-DKO hiR2-FL-N829R-T7, MEF-DKO hiR2-FL-W830C-T7, MEF-DKO hiR2-FL-P831E-T7, MEF-DKO hiR2-FL-1833C-T7, MEF-DKO hiR2-FL-H835F-T7, MEF-DKO hiR2-FL-F839I-T7, MEF-DKO hiR2-FL-S843D-T7, MEF-DKO hiR2-FL-Q853A-T7, MEF-DKO hiR2-FL-V854Q-T7 and MEF-DKO hiR2-FL-R844K-T7 cells were harvested with 10 mM EDTA in PBS, washed and resuspended in FACS buffer (PBS, 3% FBS, 0.05% sodium azide), and seeded in Nunc U-bottom 96-well plates (Thermo Fisher Scientific, USA) at approximately 1×10⁵ cells per well. To pellet cells and remove supernatants, the plates were centrifuged at 1,500 rpm and 4° C. for 3 minutes. For primary staining, cells were resuspended in 100 μl per well of either FACS buffer alone (controls) or the purified antibodies 3, 5, 16, 22, 34, 42, 43, 44, 48, and 50 of the present disclosure at 3 μg/ml in FACS buffer and incubated on ice for 1 hour. Afterwards, plates were centrifuged at 1,500 rpm and 4° C. for 3 minutes and washed twice with 200 μl per well of FACS buffer. For secondary staining, cells were spun down and resuspended in 100 μl per well of PE-conjugated goat anti-mouse IgG F(ab′)2 detection fragment (Dianova, Germany) diluted 1:100 in FACS buffer. Protected from light, the cell suspensions were incubated on ice for 1 hour. Plates were then centrifuged at 1,500 rpm and 4° C. for 3 minutes and washed three times with 200 μl per well of FACS buffer. Finally, cells were resuspended in 150 μl per well of FACS buffer and analyzed using a BD Accuri™ C6 Plus flow cytometer (Becton Dickinson, Germany).

B1: antibody 34 (antibody, V domains shown)
VH: QVTLKESGPGILQPSQTLSLTCSFSGFSLSTFSLGVGWIRQSSGKGLEWLAHIWWDDEKYYNPALKSRLTISKDTSKNQVFLKIANVDAADTATYYCARAYYSKSYYALDYWGQGTSVTVSS
VL: DIQMTQSPSSLSASLGERVSLTCRASQEISGYLSWLQQKPDGTIKRLIYAASTLDSGVPKRFSGSRSGSDYSLAISSLESEDFADYYCLQYANFPFTFGSGTKLEIK
notes: Mouse IgG, kappa light chain; also called clone #34; m34
Regarding B1, the “grade of loss of binding vs wild type” value is 2 grade (2 => 60% loss of binding vs wild type).

B2: antibody 43 (antibody, V domains shown)
VH: QVALKESGPGILQPSQTLSLTCSFSGFSLSTFGMGVGWIRQSSGKGLEWLANIWWDDDKYYNPALKSRLTISKDASKNQAFLKIANVDTADTATYYCARIGNYGSNYWYFDVWGTGTTVTVSS
VL: QIVLTQSPAIMSASPGERVTMTCSANSRISYMYWYQQKPGSSPRLLIYDTSNLASGVPVRFSGSGSGTSYSLTISRMEAEDAATYNCQQWSSYPLTFGAGTKLELK
notes: Mouse IgG, kappa light chain; also called clone #43
As for B2, the “grade of loss of binding vs wild type” value was 2 grade (2 => 60% loss of binding vs wild type).

B3: antibody 42 (antibody, V domains shown)
VH: QVTLKESGPGILQPSQTLSLTCSLSGFSLSTFGRGVGWIRQPSGKGLEWLAHIWWDDEKYYNPALKSRLTISKDTSKNQVFLRIANVDTADTATYYCARIQNYGSNYWYFDVWGTGTTVTVSS
VL: LIVLTQSPAIMSASPGEKVTMTCGATSRISYMFWYQQKPGSSPRVLIYDTSNLASGVPVRFSGSGSGTSYSLTISRVEAEDVATYYCQQWNSYPLTFGAGTKLELK
notes: Mouse IgG, kappa light chain; also called clone #42; m42
As for B3, the “grade of loss of binding vs wild type” value is 2 grade (2 => 60% loss of binding vs wild type).

B4: antibody 44 (antibody, V domains shown)
VH: QVTLKESGPGILQPSQTLSLTCSFSGFSLSTFGMGVGWIRQPSEKGLEWLAHIWWDDDKYYNPALKSRLTISKDTSKNQIFLKITNVDTAETATYYCSRIGNYGSNYWYFDVWGTGTTVTVSS
VL: QIVLTQSPAVMSASPGEKVTMTCTASSSVYYMYWYQQTPGSSPRLLIYDTSNLASGVPVRFSGSGSGTSYSLTISRMEAEDAATYYCQQWNTYPLTFGAGTKLELK
notes: Mouse IgG, kappa light chain; also called clone #44; m44
B4: the “grade of loss of binding vs wild type” value was 2 grade (2 => 60% loss of binding vs wild type).

B5: antibody 22 (antibody, V domains shown)
VH: QVTLKESGPGILQPSQTLSLTCSFSGFSLSTFGMGVGWIRQPSGKGLEWLAHIWWDDEKYYNSALKSRLTISKATSKNQVFLKIANVDTADTATYYCARISNYGSNYWYFNVWGTGTTVTVSS
VL: QVVLTQSPALMSASPGEKVTMTCSAGSSVSYMYWYQQKPGSSPRVLIYDTSNLASGVPARFTGSGSGTSYSLTISRMEAEDAATYYCQQWNSYPLTFGAGTKLELK
notes: Mouse IgG, kappa light chain; also called clone #22; m22
Regarding B5, the “grade of loss of binding vs wild type” value is 2 grade (2 => 60% loss of binding vs wild type).

Source of the values: US20240174744A1 (SCIRHOM, published 2024).
